Reference: patent publication US20150275215, “NEUTRALIZING RNA APTAMERS AGAINST PDGFBETA AND USES THEREOF IN THE THERAPY AND DIAGNOSIS OF HYPERPROLIFERATIVE DISEASES” (CONSIGLIO NAZIONALE DELLE RICERCHE, published 2015)

Key:
[1] = target: PDGFRalpha extracellular domain (EC-PDGFRα) (Homo sapiens, UniProt P16234 P16234:24-528); test: filter; no saturable binding detectable up to 1000 nM; details: tags: soluble, R&D Systems; label: 5'-32P
[2] = target: PDGFRbeta extracellular domain (EC-PDGFRβ) (Homo sapiens, UniProt P09619 P09619:33-532); test: filter; 1 nM radiolabeled RNA, 1-1000 nM protein; unrelated aptamer background subtracted; details: tags: soluble, R&D Systems; label: 5'-32P
Sequence of PDGFRbeta extracellular domain (EC-PDGFRβ) (P09619 33-532, one chain of several): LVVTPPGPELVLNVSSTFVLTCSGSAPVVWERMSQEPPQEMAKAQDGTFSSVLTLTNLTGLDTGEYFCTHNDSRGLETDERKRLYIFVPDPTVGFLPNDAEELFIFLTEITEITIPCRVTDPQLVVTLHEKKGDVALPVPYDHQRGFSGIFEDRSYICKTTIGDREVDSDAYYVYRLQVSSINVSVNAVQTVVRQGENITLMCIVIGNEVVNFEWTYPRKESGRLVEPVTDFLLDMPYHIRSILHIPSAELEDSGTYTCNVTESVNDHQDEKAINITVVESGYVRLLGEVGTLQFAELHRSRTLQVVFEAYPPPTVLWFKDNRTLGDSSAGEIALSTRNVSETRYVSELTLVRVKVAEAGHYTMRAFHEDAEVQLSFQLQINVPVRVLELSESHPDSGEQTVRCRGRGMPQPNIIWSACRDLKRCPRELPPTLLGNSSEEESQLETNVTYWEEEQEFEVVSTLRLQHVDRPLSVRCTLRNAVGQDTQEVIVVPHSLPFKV

Sequence of PDGFRalpha extracellular domain (EC-PDGFRα) (P16234 24-528, one chain of several): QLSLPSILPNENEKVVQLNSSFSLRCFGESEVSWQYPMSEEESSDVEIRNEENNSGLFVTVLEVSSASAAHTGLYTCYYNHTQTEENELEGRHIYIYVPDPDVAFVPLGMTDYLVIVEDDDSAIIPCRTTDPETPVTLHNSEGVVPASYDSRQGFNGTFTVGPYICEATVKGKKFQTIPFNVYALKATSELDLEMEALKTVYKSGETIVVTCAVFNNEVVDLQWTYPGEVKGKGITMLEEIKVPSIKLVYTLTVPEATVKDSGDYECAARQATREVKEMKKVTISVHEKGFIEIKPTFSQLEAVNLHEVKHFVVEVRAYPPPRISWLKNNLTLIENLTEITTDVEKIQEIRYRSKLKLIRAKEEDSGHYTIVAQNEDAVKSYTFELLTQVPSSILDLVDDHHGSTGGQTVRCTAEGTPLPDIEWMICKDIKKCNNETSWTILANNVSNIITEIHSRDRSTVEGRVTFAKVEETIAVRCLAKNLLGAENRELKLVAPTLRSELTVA

Binder | binding result [1] | Kd [2] [nM]
UGUCGUGGGGCAUCGAGUAAAUGCAAUUCGACA (ssRNA, 2'-F all pyrimidines) [Gint4.T] | no binding | 9.6
Gint4 (ssRNA, 2'-F all pyrimidines) RNA: GGGAGACAAGAAUAAACGCUCAAUCAUAAGAGGUAUCACAUUGUCGUGGGGCAUCGAGUAAAUGCAAUUCGACAGGAGGCUCACAACAGGC | – | 10.4
